{
  "source": "patent US9555076B2",
  "about": "“Neuregulin based methods and compositions for treating cardiovascular diseases” (Zensun (Shanghai) Science & Technology, Co., Ltd., priority 2002, dated 2017)",
  "molecules": {"B1": {"name": "rhNRG-1 β: Recombinant human neuregulin fragment of 61 amino acid (SEQ ID NO:4), 3 disulfide bonds, expressed in E. coli (protein, listed as Homo sapiens)", "chain": "SHLVKCAEKEKTFCVNGGECFMVKDLSNPSRYLCKCPNEFTGDRCQNYVMASFYKAEELYQ", "modifications": "disulfide (positions not given here)"}},
  "key": {"Rhesus": {"tested_on": "Rhesus", "experiment": "Rhesus long-term toxicity study, 3 weeks iv plus 3 weeks convalescence", "details": "7.5, 15, 75 μg/kg/d iv 3 weeks"}, "[1]": {"tested_on": "toxic myocarditis caused by Adriamycin in rat", "experiment": "Heart size (heart weight/body weight, wall thickness), Adriamycin rat model", "format": "in vivo, SD rat", "details": "Adriamycin model", "method": "Heart was extirpated after thoracotomy (auricle should be reserved), the heart weight was measured after dried with absorbent paper, ratio of heart weight/body weight calculated; outer diameter of the heart was measured at ½ site of the vertically standing heart; medium part of the left ventricle was crosswise cut open, maximal thickness of free wall of the left ventricle measured; the heart was fixed with 10% formaldehyde, paraffin embedded and HE stained, observation of the myocardial structure carried out under optic microscope, give out pathologic score."}, "[2]": {"tested_on": "acute myocardial injury caused by viral (Coxsackie B3) infection in mice", "experiment": "Serum troponin I (cTnI), mice infected with Coxsackie B3 virus", "format": "in vivo, BALB/C mice", "method": "Severity of myocardial injury was evaluated through determination of the amount of serum cTnI release, with advantage of high specificity and high sensitivity when comparing with other traditional index such as CK, LDH and AST. Therefore, serum cTnI content determination was used as an objective index reflecting the severity of myocardial injury.\nAt the 8th day of viral injection, body weight of the mice was measured and blood withdrawn from the orbit, serum separated, stored in −20° C. refrigerator and serum cTnI determination with luminous reaction carried out."}, "[3]": {"tested_on": "toxic myocarditis caused by Adriamycin in rat", "experiment": "Serum troponin T (cTnT) level, Adriamycin rat model", "format": "in vivo, SD rat", "details": "Adriamycin model, (I)", "method": "2 ml of arterial blood was withdrawn, serum extracted, frozen and stored at −20° C., determination of serum cTnT content was performed with electrochemistry irradiate method submitted to be carried out by Clinical Laboratory of Zhong Shan Hospital."}, "[4]": {"tested_on": "toxic myocarditis caused by Adriamycin in rat", "experiment": "Serum troponin T (cTnT) level, Adriamycin rat model", "format": "in vivo, SD rat"}, "[5]": {"tested_on": "phosphorylation of ErbB2 protein, MCF-7 cells", "experiment": "In vitro determination of NRG-1 activity (ELISA test for kinase receptor activation)", "format": "cell-based, human", "from_the_text": "Quantity of standard product that can induce 50% maximal reaction is defined as an activity unit (1U). Accordingly, product from different pharmaceuticals and of different batch number can be quantitated with uniform criteria.\nHER2/neu gene encodes a trans-membrane protein p185, which is a tyrosine protein kinase. Binding of Neuregulin-1 with ErbB3 or ErbB4 induces heterodimer ErbB3-ErbB2 and ErbB4-ErbB2 formation and activates HER2 encoded tyrosine protein kinase, mediating the transmission of functioning signal of Neuregulin-1. Based on the fact that binding of Neuregulin-1 with its receptors triggers phosphorylation of ErbB2 protein, we establish a rapid, sensitive and high flux method for in vitro quantitatively determining biological activity of Recombinant Neuregulin-1.\n150 mM NaCl+50 mM Hepes+1% Triton-X 100+2 mM (sodium orthovanadate)+0.01% (thimerosol). […]\nWash the plate 5 times, dilute HRP enzyme linked mouse anti-phosphorylated tyrosine protein antibody with 1:500 lotion (determined by the product using guide and the using time), add 100 μl into each hole of the plate. […]\nColorimetric analysis on the ELISA reader, determine wave length of 450 nm, reference wave length of 655, record the results. […]"}},
  "note": "Values joined by “and” are separate entries in the source; they are usually repeats but may differ in a detail not shown here. Identical values can stand only once.",
  "data": [
    {"molecule": "B1", "values": [
      {"measurement": "animal death", "setting": "Rhesus", "value": "No animal death associated with the testing drug"},
      {"measurement": "Heart weight/body weight", "setting": "[1]; 10 μg/kg iv qd × 10 d, (I)", "value": "0.00301 ± 0.0002"},
      {"measurement": "Left ventricle wall thickness", "setting": "[1]; 10 μg/kg iv qd × 10 d, (I)", "value": "1.773 ± 0.115", "unit": "mm"},
      {"measurement": "Heart weight/body weight", "setting": "[1]; 10 μg/kg iv qd × 10 d, (II)", "value": "0.00307 ± 0.000"},
      {"measurement": "Left ventricular wall thickness", "setting": "[1]; 10 μg/kg iv qd × 10 d, (II)", "value": "2.18 ± 0.21", "unit": "mm"},
      {"measurement": "Heart weight/body weight", "setting": "[1]; 20 μg/kg iv qd × 10 d, (I)", "value": "0.0032 ± 0.0001"},
      {"measurement": "Left ventricle wall thickness", "setting": "[1]; 20 μg/kg iv qd × 10 d, (I)", "value": "1.789 ± 0.133", "unit": "mm"},
      {"measurement": "Heart weight/body weight", "setting": "[1]; 20 μg/kg iv qd × 10 d, (II)", "value": "0.00303 ± 0.000"},
      {"measurement": "Left ventricular wall thickness", "setting": "[1]; 20 μg/kg iv qd × 10 d, (II)", "value": "2.15 ± 0.24", "unit": "mm"},
      {"measurement": "Heart weight/body weight", "setting": "[1]; 40 μg/kg iv qd × 10, (II)", "value": "0.00297 ± 0.000"},
      {"measurement": "Left ventricular wall thickness", "setting": "[1]; 40 μg/kg iv qd × 10, (II)", "value": "2.06 ± 0.2", "unit": "mm"},
      {"measurement": "Heart weight/body weight", "setting": "[1]; 40 μg/kg iv qd × 10 d, (I)", "value": "0.0031 ± 0.0002"},
      {"measurement": "Left ventricle wall thickness", "setting": "[1]; 40 μg/kg iv qd × 10 d, (I)", "value": "1.813 ± 0.12", "unit": "mm"},
      {"measurement": "cTnI Mean ± SD", "setting": "[2]; 7.5 μg/kg iv qd × 5, 8th day, (I)", "value": "29.05 ± 17.06", "unit": "ng/mL"},
      {"measurement": "cTnI Mean ± SD", "setting": "[2]; 7.5 μg/kg iv qd × 5, 8th day, (I), listed as rhNRG-1β", "value": "29.05 ± 17.06", "unit": "ng/mL"},
      {"measurement": "cTnI Mean ± SD", "setting": "[2]; 7.5 μg/kg iv qd × 5, 8th day, (II)", "value": "26.85 ± 15.20", "unit": "ng/mL"},
      {"measurement": "cTnI Mean ± SD", "setting": "[2]; 15 μg/kg iv qd × 5, 8th day, (I)", "value": "19.43 ± 10.76", "unit": "ng/mL"},
      {"measurement": "cTnI Mean ± SD", "setting": "[2]; 15 μg/kg iv qd × 5, 8th day, (I), listed as rhNRG-1β", "value": "19.43 ± 10.76", "unit": "ng/mL"},
      {"measurement": "cTnI Mean ± SD", "setting": "[2]; 15 μg/kg iv qd × 5, 8th day, (II)", "value": "15.59 ± 14.94", "unit": "ng/mL"},
      {"measurement": "cTnI Mean ± SD", "setting": "[2]; 30 μg/kg iv qd × 3, (I)", "value": "13.37 ± 9.53", "unit": "ng/mL"},
      {"measurement": "cTnI Mean ± SD", "setting": "[2]; 30 μg/kg iv qd × 3, (II)", "value": "12.32 ± 18.36", "unit": "ng/mL"},
      {"measurement": "cTnI Mean ± SD", "setting": "[2]; 30 μg/kg iv qd × 5, 8th day, (I)", "value": "7.98 ± 6.07", "unit": "ng/mL"},
      {"measurement": "cTnI Mean ± SD", "setting": "[2]; 30 μg/kg iv qd × 5, 8th day, (I), listed as rhNRG-1β", "value": "7.98 ± 6.07", "unit": "ng/mL"},
      {"measurement": "cTnI Mean ± SD", "setting": "[2]; 30 μg/kg iv qd × 5, 8th day, (II)", "value": "0.54 ± 0.53", "unit": "ng/mL"},
      {"measurement": "cTnI Mean ± SD", "setting": "[2]; 30 μg/kg iv qd × 5, Example 5 (I)", "value": "1.06 ± 1.32", "unit": "ng/mL"},
      {"measurement": "cTnI Mean ± SD", "setting": "[2]; 30 μg/kg iv qd × 5, Example 5 (I), listed as rhNRG-1β", "value": "1.06 ± 1.32", "unit": "ng/mL"},
      {"measurement": "cTnI Mean ± SD", "setting": "[2]; 30 μg/kg iv qd × 5, Example 5 (II)", "value": "0.44 ± 0.24", "unit": "ng/mL"},
      {"measurement": "cTnI Mean ± SD", "setting": "[2]; 30 μg/kg iv qd × 7, (I)", "value": "1.05 ± 1.2 ng/mL and 1.05 ± 1.20 ng/mL"},
      {"measurement": "cTnI Mean ± SD", "setting": "[2]; 30 μg/kg iv qd × 7, (I), listed as rhNRG-1β", "value": "1.05 ± 1.20", "unit": "ng/mL"},
      {"measurement": "cTnI Mean ± SD", "setting": "[2]; 30 μg/kg iv qd × 7, (II)", "value": "0.51 ± 0.28", "unit": "ng/mL"},
      {"measurement": "cTnT", "setting": "[3]; 10 μg/kg iv qd × 10 d", "value": "0.074 ± 0.024", "unit": "ng/mL"},
      {"measurement": "cTnT", "setting": "[3]; 10 μg/kg iv qd × 10 d, listed as rhNRG-1β", "value": "0.074 ± 0.024", "unit": "ng/mL"},
      {"measurement": "cTnT", "setting": "[3]; 20 μg/kg iv qd × 10 d", "value": "0.031 ± 0.006", "unit": "ng/mL"},
      {"measurement": "cTnT", "setting": "[3]; 20 μg/kg iv qd × 10 d, listed as rhNRG-1β", "value": "0.031 ± 0.006", "unit": "ng/mL"},
      {"measurement": "cTnT", "setting": "[3]; 40 μg/kg iv qd × 10 d", "value": "0.025 ± 0.011", "unit": "ng/mL"},
      {"measurement": "cTnT", "setting": "[3]; 40 μg/kg iv qd × 10 d, listed as rhNRG-1β", "value": "0.025 ± 0.011", "unit": "ng/mL"},
      {"measurement": "cTnI", "setting": "[4]; 10 μg/kg iv qd × 10 d, (II)", "value": "8.342 ± 13.537", "unit": "ng/mL"},
      {"measurement": "cTnI", "setting": "[4]; 20 μg/kg iv qd × 10 d, (II)", "value": "1.677 ± 0.589", "unit": "ng/mL"},
      {"measurement": "cTnI", "setting": "[4]; 40 μg/kg iv qd × 10, (II)", "value": "0.874 ± 0.108", "unit": "ng/mL"},
      {"measurement": "specific activity", "setting": "[5]; batch number 200210024", "value": "1.12×10^4 U/mg"},
      {"measurement": "specific activity", "setting": "[5]; purified recombinant neuregulin from engineered strain", "value": "more than 5×10^3 EU/mg"}
    ]}
  ]
}
